According to patent US20170355774A1:
Blank lines part the entries; values can stand above or below the binder they belong to.

Tests used:
[1] = target: human GITR (amino acids M1-V241, NCBI Accession #NP_004186.1) expressed on cells (human) (UniProt Q9Y5U5); assay: cell-based or functional assay
hGITR.mmh (human) = assay: SPR 37C, mAb capture
hGITR.hFc (human) = assay: SPR 37C, mAb capture
[2] = target: mfGITR.mmh (Macaca fasicularis); assay: SPR 37C, mAb capture
Chain of mfGITR.mmh (Macaca fasicularis) (chain, as listed by the source limits assumed): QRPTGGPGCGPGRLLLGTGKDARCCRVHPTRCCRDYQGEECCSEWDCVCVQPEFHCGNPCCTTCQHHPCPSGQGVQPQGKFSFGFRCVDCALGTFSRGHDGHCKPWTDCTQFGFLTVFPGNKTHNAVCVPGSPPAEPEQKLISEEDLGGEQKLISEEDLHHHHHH

Chain of hGITR.mmh (human) (chain, as listed by the source limits assumed): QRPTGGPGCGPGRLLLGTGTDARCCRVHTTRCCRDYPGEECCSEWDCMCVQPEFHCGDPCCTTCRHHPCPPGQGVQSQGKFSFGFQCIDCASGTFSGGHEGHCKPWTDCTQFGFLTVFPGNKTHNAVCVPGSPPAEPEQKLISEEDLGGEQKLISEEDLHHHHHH
Chain of human GITR (amino acids M1-V241, NCBI Accession #NP_004186.1) expressed on cells (human) (Q9Y5U5 26-241): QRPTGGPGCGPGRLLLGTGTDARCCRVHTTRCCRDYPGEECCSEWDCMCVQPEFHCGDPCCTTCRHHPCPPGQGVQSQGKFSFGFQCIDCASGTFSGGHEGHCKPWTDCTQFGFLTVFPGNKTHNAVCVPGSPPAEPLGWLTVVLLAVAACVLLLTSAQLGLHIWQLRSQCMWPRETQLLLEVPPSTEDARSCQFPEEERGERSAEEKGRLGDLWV
Chain of hGITR.hFc (human) (chain, as listed by the source limits assumed): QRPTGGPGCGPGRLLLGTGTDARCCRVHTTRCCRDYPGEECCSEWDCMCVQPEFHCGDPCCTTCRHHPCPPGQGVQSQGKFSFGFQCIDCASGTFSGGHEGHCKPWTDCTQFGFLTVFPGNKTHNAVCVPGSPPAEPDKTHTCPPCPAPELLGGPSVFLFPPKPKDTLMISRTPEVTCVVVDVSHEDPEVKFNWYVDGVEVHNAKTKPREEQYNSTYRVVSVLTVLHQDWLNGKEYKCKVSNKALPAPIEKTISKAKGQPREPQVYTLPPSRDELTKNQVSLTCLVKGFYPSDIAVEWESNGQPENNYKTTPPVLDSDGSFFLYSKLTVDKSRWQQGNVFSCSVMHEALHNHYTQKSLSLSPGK

- % Activation, NF-kB-Luc, non-anchored [1]: 25%
- % Blocking, NF-kB-Luc, FcgR anchored [1]: 60%
- % Blocking, NF-kB-Luc, non-anchored [1]: 54%
- EC50, T-cell proliferation, FcgR anchored, donor 1 [1]: 37.2 nM
- EC50, T-cell proliferation, FcgR anchored, donor 3 [1]: 42.9 nM
- EC50, T-cell proliferation, FcgR anchored, donor 4 [1]: 3.5 nM
- EC50, T-cell proliferation, FcgR anchored, donor 5 [1]: 52.7 nM
- EC50, T-cell proliferation, FcgR anchored, mean [1]: 34.1 nM
- EC50, hGITR activation, NF-kB-Luc, FcgR anchored [1]: 0.1 nM
- EC50, hGITR activation, NF-kB-Luc, non-anchored [1]: 1.02 nM
- Fold Activation over basal signal, NF-kB-Luc, FcgR anchored [1]: 6 fold
- IC50, blocking of hGITRL stimulation, NF-kB-Luc, FcgR anchored [1]: 0.2 nM
- IC50, blocking of hGITRL stimulation, NF-kB-Luc, non-anchored [1]: 0.1 nM
- fold activation, T-cell proliferation, 22 nM, non-anchored, donor 1 [1]: 0.7 fold
- fold activation, T-cell proliferation, 22 nM, non-anchored, donor 2 [1]: 0.8 fold
- fold activation, T-cell proliferation, 22 nM, non-anchored, donor 3 [1]: 1 fold
- fold activation, T-cell proliferation, 22 nM, non-anchored, donor 4 [1]: 1 fold
- fold activation, T-cell proliferation, 22 nM, non-anchored, mean [1]: 0.9 fold
- fold activation, T-cell proliferation, 33 nM, FcgR anchored, donor 1 [1]: 2.8 fold
- fold activation, T-cell proliferation, 33 nM, FcgR anchored, donor 2 [1]: 2.8 fold
- fold activation, T-cell proliferation, 33 nM, FcgR anchored, donor 3 [1]: 1.4 fold
- fold activation, T-cell proliferation, 33 nM, FcgR anchored, donor 4 [1]: 1.1 fold
- fold activation, T-cell proliferation, 33 nM, FcgR anchored, donor 5 [1]: 1.7 fold
- fold activation, T-cell proliferation, 33 nM, FcgR anchored, mean [1]: 2 fold
- fold activation, T-cell proliferation, plate-bound Ab 10.6 nM, donor 1 [1]: 6 fold
- fold activation, T-cell proliferation, plate-bound Ab 10.6 nM, donor 2 [1]: 23 fold
- fold activation, T-cell proliferation, plate-bound Ab 10.6 nM, donor 3 [1]: 23 fold
- fold activation, T-cell proliferation, plate-bound Ab 10.6 nM, donor 4 [1]: 40 fold
- fold activation, T-cell proliferation, plate-bound Ab 10.6 nM, donor 5 [1]: 23 fold
- fold activation, T-cell proliferation, plate-bound Ab 10.6 nM, donor 6 [1]: 66 fold
- fold activation, T-cell proliferation, plate-bound Ab 10.6 nM, donor 7 [1]: 25 fold
- fold activation, T-cell proliferation, plate-bound Ab 10.6 nM, donor 8 [1]: 11 fold
- fold activation, T-cell proliferation, plate-bound Ab 10.6 nM, mean [1]: 27 fold
- Kd (hGITR.mmh (human)): 122 nM
- koff (hGITR.mmh (human)): 0.0263 s⁻¹
- kon (hGITR.mmh (human)): 216000 M⁻¹ s⁻¹
- t½ (hGITR.mmh (human)): 24 s
- Kd (hGITR.hFc (human)): 20.4 nM
- koff (hGITR.hFc (human)): 0.0078 s⁻¹
- kon (hGITR.hFc (human)): 382000 M⁻¹ s⁻¹
- t½ (hGITR.hFc (human)): 90 s
- Kd [2]: 213 nM
- koff [2]: 0.0464 s⁻¹
- kon [2]: 218000 M⁻¹ s⁻¹
- t½ [2]: 12 s
B1: Anti-GITR Control Ab I-mIgG1 (antibody, from another filing, V domains shown)
VH: QVTLKESGPGILKPSQTLSLTCSFSGFSLSTSGMGVGWIRQPSGKGLEWLAHIWWDDDKYYNPSLKSQLTISKDTSRNQVFLKITSVDTADAATYYCARTRRYFPFAYWGQGTLVTVSS
VL: DIVMTQSQKFMSTSVGDRVSVTCKASQNVGTNVAWYQQKPGQSPKALIYSASYRYSGVPDRFTGSGSGTDFTLTINNVHSEDLAEYFCQQYNTDPLTFGAGTKLEIK

- % Blocking, NF-kB-Luc, FcgR anchored [1]: 74%
- EC50, hGITR activation, NF-kB-Luc, FcgR anchored [1]: 0.2 nM
- Fold Activation over basal signal, NF-kB-Luc, FcgR anchored [1]: 5 fold
- IC50, blocking of hGITRL stimulation, NF-kB-Luc, FcgR anchored [1]: 0.01 nM
- fold activation, T-cell proliferation, 33 nM, FcgR anchored, donor 1 [1]: 1.1 fold
- fold activation, T-cell proliferation, 33 nM, FcgR anchored, donor 2 [1]: 0.1 fold
- fold activation, T-cell proliferation, 33 nM, FcgR anchored, donor 3 [1]: 1 fold
- fold activation, T-cell proliferation, 33 nM, FcgR anchored, donor 4 [1]: 1 fold
- fold activation, T-cell proliferation, 33 nM, FcgR anchored, donor 5 [1]: 1.2 fold
- fold activation, T-cell proliferation, 33 nM, FcgR anchored, mean [1]: 1.3 fold
B2: Anti-GITR Control Ab I-mIgG2a (antibody, from another filing, V domains shown)
VH: QVTLKESGPGILKPSQTLSLTCSFSGFSLSTSGMGVGWIRQPSGKGLEWLAHIWWDDDKYYNPSLKSQLTISKDTSRNQVFLKITSVDTADAATYYCARTRRYFPFAYWGQGTLVTVSS
VL: DIVMTQSQKFMSTSVGDRVSVTCKASQNVGTNVAWYQQKPGQSPKALIYSASYRYSGVPDRFTGSGSGTDFTLTINNVHSEDLAEYFCQQYNTDPLTFGAGTKLEIK
